From EP1012244B1

Target: HIV-1 strain IIIB envelope protein gp120/41 on the surface of HIV-1-infected Jurkat cells (HIV-1 strain IIIB) (UniProt P04578)
Experiment: cell-based or functional assay

## CXCR4 protein with an HA epitope tag (from UniProt P61073 1-352) (receptor)
  percentage of HIV-1+ cells that were also infected with VSVΔG-CC4: 90 to 95%
